Results reported in patent US8460910B2 (Illumina Cambridge Limited, priority 2003, dated 2013).
Changes are numbered by the printed parent chain. Numbers in names are those of the source.

Assays:
[1] = system: cordycepin (3′deoxy adenosine triphosphate); conditions: Vent polymerase variant; cited from earlier work
3′ modified nucleotide [2] = experiment: Gel-based incorporation assay of Example 2, two cycles of enzymology on bead-bound 32P-labelled DNA template; assay type: biochemical; conditions: for Time to 50% product conversion on first cycle of incorporation / Time (mins) to 50% product conversion on second cycle of enzymology: 45° C., 50 mM Tris, pH 8, 4 mM MgSO4, 0.05 (v/v) Tween, 50 μg/ml enzyme, 2 μM 3′ modified nucleotide; for Time to 50% product conversion on first cycle of incorporation: first cycle (in parentheses); for incorporation of 3′ modified nucleotide analogues compared to 9° N DM (Y409V/A485L): region A variants, conditions of Example 2
Method: The mutant polymerases were assessed for their ability to incorporate a 3′ blocked nucleotide analogue using a gel-based assay as described in generic form in Example 1. The rates of incorporation of the modified nucleotides were compared to purified forms of related DNA polymerases in both a single round of incorporation and through two rounds of nucleotide incorporation. The DNA template that was used for these experiments was a commercially-synthesised biotinylated oligonucleotide.
The method for two cycles of incorporation involves the binding of the DNA primer-template to streptavidin-coated beads (Dynalbeads). These are prepared as follows: • Resuspend beads in storage pot by pipetting up and down Take 20 μL beads • Wash 3×200 μL TE buffer (10 mM Tris HCl pH 7.5, 1 mM EDTA) Add 50 μL B&W buffer (5 mM Tris HCl, pH 7.5; 1M NaCl, […]) • 25 μL H2O • 25 μL of ^32P-labelled biotin DNA template (final concentration of 100 nM)
The first cycle of enzymatic incorporation is performed on these beads as follows:
Incorporation mix 1 is added to the bead pellet from above.
Reactions are incubated at 45° C. for 15 minutes
The first cycle of enzymology is then deblocked by treatment with tri(carboxyethyl) phosphine (TCEP) as follows:
Add 65 μL TCEP (100 mM) in water and incubate at 65° C. for 15 minutes
After removal of the TE buffer, a second cycle of enzymatic incorporation is then performed by the addition of incorporation mix 2, as follows:
Take 5 μL samples out at ½, 1, 2, 4, 10, 30, 60 mins and add to gel loading buffer with EDTA.
Heat all samples to 95° C. for 10 mins and load 3 μl on a 12% acrylamide gel (Sambrook and Russell, 2001).
Time (mins) to 50% product conversion on second cycle of enzymology at 45° C., 50 mM Tris, pH 8, 4 mM MgSO4, 0.05 (v/v) Tween, 50 μg/ml enzyme, and 2 μM 3′ modified nucleotide. Time to 50% product conversion on first cycle of incorporation shown in parentheses. For other mutants the time to 50% conversion on the first cycle was not measured in these experiments

3′ modified nucleotide [3] = experiment: Single incorporation method (single cycle of nucleotide incorporation, gel read-out); assay type: biochemical; conditions: 45° C.; for incorporation of uracil nucleotide analogues with different 3′ modifications: 3′ O-allyl, 3′ S-methyl and 3′ O-azido methyl, single cycle, FIG. 3
Method: In order to determine whether the modified polymerases described in the previous examples have the capability to incorporate different nucleotide analogues that bear large modifications at the 3′ position of the sugar, three different uracil nucleotide analogues (3′ O-allyl, 3′ S-methyl, and 3′ O-azido methyl) were tested for their ability to be incorporated by two different […] (9° N ED variant polymerase, and 9° N YAV variant polymerase), compared to a control polymerase (9° N DM). A single cycle of nucleotide incorporation was performed at different time intervals using a ‘single incorporation’ method described below.
1. In a clean reaction tube, mix the following components: • 100 nM ^32P-labelled duplex DNA substrate • 50 μg/ml isolated DNA polymerase • 50 mM TrisHCl, pH 8 • 0.05% Tween20 • water to 47 μL
2. incubate the mixture at 45° C.
3. Add 4 mM MgSO4 and 2 μM 3′ modified nucleotide to the reaction mixture from 2, such that the total reaction volume is 50 μL
4. at various time intervals remove 5 μL aliquots from the reaction tube and mix with 5 μL gel loading buffer (described in Example 2)
5. Heat samples and load on acrylamide gels as described in Example 2.
To determine if the DNA polymerases described in previous examples were capable of incorporating 3′ modified nucleotide derivatives of A, G, C and T bases, and also of incorporating such nucleotide derivatives further modified by different fluorescent reporter groups, a single incorporation reaction (as described in Example 3) was performed with the following 3′ O-azido methyl nucleotide derivatives: […]

[4] = system: 3′ modified nucleotide analogues; experiment: Example 1 library screen (ffT-DIG filter assay) and primer extension assay against 9DM control; assay type: biochemical; conditions: variants mutated at regions A and B
Method: Mutations were introduced simultaneously at two regions of the 9° N DNA polymerase sequence, residues 408-410, and residues 484-486. A library of polymerase variants was screened for the incorporation of the 3′ modified nucleotide analogues.
The variant polymerases have increased activity towards the modified nucleotides utilised in the experiments. Thus, they appear to incorporate nucleotide analogues which have been modified at the 3′ sugar hydroxyl such that the substituent is larger in size than the naturally occurring 3′ hydroxyl group in primer extension assays faster than previously available polymerases which can act as a control polymerase, such as the 9° N (-exo) Y409V/A485L double mutant (designated 9DM herein).
There are many different methods for screening for nucleotide incorporation that are variations on the method of Sagner et al. (1991). One suitable method is described herein for the incorporation of 3′ modified nucleotide analogues that uses a digoxigenin-3-O-methyl-carbonyl-e-aminocaproic acid (DIG) derivative of the relevant nucleotide analogue (ffT-DIG)
Remove tape and 3 MM paper and place filter back in petri dish. Add incorporation solution pre-warmed to temperature that incorporation will be tested at. […]
This is a generalised method. […] Also, have ready eppendorf containing 1 μl CHASE mix for each reaction. […]

For “Y412V: Vent DNA polymerase with mutation Y412V (Gardner and Jack 1999)”, the “rate enhancement with cordycepin” value [1] is listed as 2 fold.

B1: YAV: 9° N polymerase (exo-) mutant, motif A region YAV, also A485L; SEQ ID NO: 22 (protein)
chain: MILDTDYITENGKPVIRVFKKENGEFKIEYDRTFEPYFYALLKDDSAIEDVKKVTAKRHGTVVKVKRAEKVQKKFLGRPIEVWKLYFNHPQDVPAIRDRIRAHPAVVDIYEYDIPFAKRYLIDKGLIPMEGDEELTMLAFAIATLYHEGEEFGTGPILMISYADGSEARVITWKKIDLPYVDVVSTEKEMIKRFLRVVREKDPDVLITYNGDNFDFAYLKKRCEELGIKFTLGRDGSEPKIQRMGDRFAVEVKGRIHFDLYPVIRRTINLPTYTLEAVYEAVFGKPKEKVYAEEIAQAWESGEGLERVARYSMEDAKVTYELGREFFPMEAQLSRLIGQSLWDVSRSSTGNLVEWFLLRKAYKRNELAPNKPDERELARRRGGYAGGYVKEPERGLWDNIVYLDFRSYAVSIIITHNVSPDTLNREGCKEYDVAPEVGHKFCKDFPGFIPSLLGDLLEERQKIKRKMKATVDPLEKKLLDYRQRLIKILANSFYGYYGYAKARWYCKECAESVTAWGREYIEMVIRELEEKFGFKVLYADTDGLHATIPGADAETVKKKAKEFLKYINPKLPGLLELEYEGFYVRGFFVTKKKYAVIDEEGKITTRGLEIVRRDWSEIAKETQARVLEAILKHGDVEEAVRIVKEVTEKLSKYEVPPEKLVIHEQITRDLRDYKATGPHVAVAKRLAARGVKIRPGTVISYIVLKGSGRIGDRAIPADEFDPTKHRYDAEYYIENQVLPAVERILKAFGYRKEDLRYQKTKQVGLGAWLKVKGKK
modifications: 9oN polymerase variant (exo-) with L408Y/Y409A/P410V mutations
With B1 the “Time to 50% product conversion on first cycle of incorporation” value (3′ modified nucleotide [2]) was “min (5 sec)”, the “Time (mins) to 50% product conversion on second cycle of enzymology” value (3′ modified nucleotide [2]) was 1.2 min and the “incorporation of 3′ modified nucleotide analogues compared to 9° N DM (Y409V/A485L)” value (3′ modified nucleotide [2]) was “best incorporation rate”. For the same molecule, the “incorporation of uracil nucleotide analogues with different 3′ modifications” value (3′ modified nucleotide [3]; 2 μM nucleotide) was “incorporated efficiently” and the “concentration of 3′ blocked nucleotide at which incorporation can be measured (as low as)” value (3′ modified nucleotide [3]; first cycle, single cycle experiment) was 50 nM.

B2: 2E: L408V/Y409A/P410L R484I/A485S/I486N 9° N mutant; SEQ ID NO: 12 (protein)
chain: B1 chain with Y408V, V410L, R484I, L485S, I486N
modifications: 9oN polymerase variant (exo-) with L408V/Y409A/P410L R484I/A485S/I486N mutations
With B2 the “incorporation of 3′ modified nucleotide analogues compared to control polymerase (9DM)” value [4] was “improved incorporation”.

B3: FAI: 9° N DM-derived polymerase with amino acids 408-410 FAI (protein, UniProt Q56366 1-775, looked up, variant D141A E143A L408F Y409A P410I A485L)
DNA polymerase: B1 chain with Y408F, V410I
With B3 the “Time (mins) to 50% product conversion on second cycle of enzymology” value (3′ modified nucleotide [2]) was 2.2 min.

B4: VAL (ED polymerase): 9° N DM derivative with L408V; V409A; P410L (motif A VAL) plus A485L; SEQ ID NO: 18 (protein)
chain: B1 chain with Y408V, V410L
modifications: 9oN polymerase variant (exo-) with L408V/Y409A/P410L and A485L mutations
In the case of B4, the “rate of incorporation of the modified nucleotides compared to the original mutant bearing changes at regions A and B (2E)” value (3′ modified nucleotide [2]) is reported as “enhanced rate of incorporation”, the “Time to 50% product conversion on first cycle of incorporation” value (3′ modified nucleotide [2]) is reported as “min (16 sec)” and the “Time (mins) to 50% product conversion on second cycle of enzymology” value (3′ modified nucleotide [2]) is reported as 5.2 min. For the same molecule, the “incorporation of 3′ modified nucleotide analogues compared to 9° N DM (Y409V/A485L)” value (3′ modified nucleotide [2]) was “improved incorporation”, the “incorporation of uracil nucleotide analogues with different 3′ modifications” value (3′ modified nucleotide [3]; 2 μM nucleotide) was “incorporated efficiently” and the substrate conversion (3′ modified nucleotide [3]; each 3′ O-azido methyl nucleotide derivative of Table IV (A, G, C, T; different dyes), 2 μM nucleotide, within 3 minutes) was “greater than 90%”.

B5: AAA: 9° N DM-derived polymerase with amino acids 408-410 AAA (protein, UniProt Q56366 1-775, looked up, variant D141A E143A L408A Y409A P410A A485L)
DNA polymerase: B1 chain with Y408A, V410A
With B5 the “Time (mins) to 50% product conversion on second cycle of enzymology” value (3′ modified nucleotide [2]) was 6.9 min.

B6: CST: 9° N DM-derived polymerase with amino acids 408-410 CST (protein, UniProt Q56366 1-775, looked up, variant D141A E143A L408C Y409S P410T A485L)
DNA polymerase: B1 chain with Y408C, A409S, V410T
In the case of B6, the “Time (mins) to 50% product conversion on second cycle of enzymology” value (3′ modified nucleotide [2]) is reported as 19.5 min.

B7: YST: 9° N DM-derived polymerase with amino acids 408-410 YST (protein, UniProt Q56366 1-775, looked up, variant D141A E143A L408Y Y409S P410T A485L)
DNA polymerase: B1 chain with A409S, V410T
With B7 the “Time (mins) to 50% product conversion on second cycle of enzymology” value (3′ modified nucleotide [2]) was 2.1 min.
